The text below walks through data of article PMC4788435 (2016).

B1: human NEK8-GFP wild type [human] / Flag-ANKS6 [not stated] (parent complex)
chain 1: MEKYERIRVVGRGAFGIVHLCLRKADQKLVIIKQIPVEQMTKEERQAAQNECQVLKLLNHPNVIEYYENFLEDKALMIAMEYAPGGTLAEFIQKRCNSLLEEETILHFFVQILLALHHVHTHLILHRDLKTQNILLDKHRMVVKIGDFGISKILSSKSKAYTVVGTPCYISPELCEGKPYNQKSDIWALGCVLYELASLKRAFEAANLPALVLKIMSGTFAPISDRYSPELRQLVLSLLSLEPAQRPPLSHIMAQPLCIRALLNLHTDVGSVRMRRAEKSVAPSNTGSRTTSVRCRGIPRGPVRPAIPPPLSSVYAWGGGLGTPLRLPMLNTEVVQVAAGRTQKAGVTRSGRLILWEAPPLGAGGGSLLPGAVEQPQPQFISRFLEGQSGVTIKHVACGDFFTACLTDRGIIMTFGSGSNGCLGHGSLTDISQPTIVEALLGYEMVQVACGASHVLALSTERELFAWGRGDSGRLGLGTRESHSCPQQVPMPPGQEAQRVVCGIDSSMILTVPGQALACGSNRFNKLGLDHLSLGEEPVPHQQVEEALSFTLLGSAPLDQEPLLSIDLGTAHSAAVTASGDCYTFGSNQHGQLGTNTRRGSRAPCKVQGLEGIKMAMVACGDAFTVAIGAESEVYSWGKGARGRLGRRDEDAGLPRPVQLDETHPYTVTSVSCCHGNTLLAVRSVTDEPVPP
chain 2: MGEGGLPPAFQLLLRACDQGDTETARRLLEPGAAEPAERGAEPEAGAEPAGAEVAGPGAAAAGAVGAPVPVDCSDEAGNTALQFAAAGGHEPLVRFLLRRGASVNSRNHYGWSALMQAARFGHVSVAHLLLDHGADVNAQNRLGASVLTVASRGGHLGVVKLLLEAGAFVDHHHPSGEQLGLGGSRDEPLDITALMAAIQHGHEAVVRLLMEWGADPNHAARTVGWSPLMLAALTGRLGVAQQLVEKGANPDHLSVLEKTAFEVALDCKHRDLVDYLDPLTTVRPKTDEEKRRPDIFHALKMGNFQLVKEIADEDPSHVNLVNGDGATPLMLAAVTGQLALVQLLVERHADVDKQDSVHGWTALMQATYHGNKEIVKYLLNQGADVTLRAKNGYTAFDLVMLLNDPDTELVRLLASVCMQVNKDKGRPSHQPPLPHSKVRQPWSIPVLPDDKGGLKSWWNRMSNRFRKLKLMQTLPRGLSSNQPLPFSDEPEPALDSTMRAAPQDKTSRSALPDAAPVTKDNGPGSTRGEKEDTLLTTMLRNGAPLTRLPSDKLKAVIPPFLPPSSFELWSSDRSRTRHNGKADPMKTALPQRASRGHPVGGGGTDTTPVRPVKFPSLPRSPASSANSGNFNHSPHSSGGSSGVGVSRHGGELLNRSGGSIDNVLSQIAAQRKKAAGLLEQKPSHRSSPVGPAPGSSPSELPASPAGGSAPVGKKLETSKRPPSGTSTTSKSTSPTLTPSPSPKGHTAESSVSSSSSHRQSKSSGGSSSGTITDEDELTGILKKLSLEKYQPIFEEQEVDMEAFLTLTDGDLKELGIKTDGSRQQILAAISELNAGKGRERQILQETIHNFHSSFESSASNTRAPGNSPCA

The variants in this test derive from B1. Description: co-immunoprecipitation (anti-GFP IP, western blot band quantification); HEK293T cell lysates co-expressing NEK8-GFP and Flag-ANKS6; parent: 1; read off a plot. (In general: Immunoblotting shows a protein as a band on a membrane.)
Consider chain 1 H425Y, for which the ratio to parent was approximately 1.

For chain 1 R602W, the ratio to parent is approximately 0.95.

As for chain 1 T87A, the ratio to parent was approximately 0.42.

On to chain 1 G580S, for which the ratio to parent is approximately 0.97.
